One molecule from article PMC2715080 (The Journal of Experimental Medicine, 2009) can be followed below.

Like-named read-outs stand apart in the source and are kept apart here.

The target in assay [1] is T1, B7-H6-Fc (extracellular domain of B7-H6, aa 1-267, fused to effector-negative mouse IgG2a Fc) (human, UniProt Q68D85 25-267).
T1 sequence (looked up): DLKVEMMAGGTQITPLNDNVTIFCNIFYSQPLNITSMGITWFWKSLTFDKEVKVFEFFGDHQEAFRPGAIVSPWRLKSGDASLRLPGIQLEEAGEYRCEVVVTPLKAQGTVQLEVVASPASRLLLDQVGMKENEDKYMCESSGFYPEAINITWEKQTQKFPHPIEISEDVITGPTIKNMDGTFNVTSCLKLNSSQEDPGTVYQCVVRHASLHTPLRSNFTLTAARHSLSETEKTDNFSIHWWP
Briefly: SPR.

The target of assay [2] is T1, B7-H6-Fc (extracellular domain of …). Briefly: SPR. This is another data set of the same source. (Surface plasmon resonance follows binding to a sensor surface in real time, without labels.)

B1: NKp30-hFc (soluble recombinant NKp30 fused to mutated human IgG1) (Fc fusion, UniProt O14931 19-135, looked up)
chain: LWVSQPPEIRTLEGSSAFLPCSFNASQGRLAIGSVTWFRDEVVPGKEVRNGTPEFRGRLAPLASSRFLHDHQAELHIRDVRGHDASIYVCRVEVLGLGVGTGNGTRLVVEKEHPQLG
On to B1, for which the binding result in assay [1] and in assay [2] was “binds” each time.
